Relative activity data for 44 molecules are collected here from patent US20110275122A1 (Amgen, published 2011).

The experiment addresses T1, c-mpl receptor (Homo sapiens (Human), UniProt P40238 26-491, The MPL used for panning was biotinylated; the biotin site is not stated and is not carried by the letters.).
T1 construct: also called TPO receptor
T1 sequence: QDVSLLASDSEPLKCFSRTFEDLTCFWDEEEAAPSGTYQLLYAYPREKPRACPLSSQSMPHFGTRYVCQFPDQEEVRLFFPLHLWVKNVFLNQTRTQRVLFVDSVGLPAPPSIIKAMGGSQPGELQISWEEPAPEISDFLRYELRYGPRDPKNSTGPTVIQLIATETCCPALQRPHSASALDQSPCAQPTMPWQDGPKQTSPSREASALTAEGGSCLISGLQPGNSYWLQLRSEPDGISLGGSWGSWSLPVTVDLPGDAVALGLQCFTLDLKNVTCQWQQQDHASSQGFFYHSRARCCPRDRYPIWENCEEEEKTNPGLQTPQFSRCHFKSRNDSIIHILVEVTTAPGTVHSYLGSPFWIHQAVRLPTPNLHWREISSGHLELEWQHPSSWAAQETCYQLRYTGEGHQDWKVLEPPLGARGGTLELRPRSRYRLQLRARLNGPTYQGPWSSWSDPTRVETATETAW
Description: phage-ELISA.

Regarding IEGPTFKQWQRWRKMHS [SEQ ID NO: 253], the Relative activity worked out at 144.
With IEGWPWQLYVHPEGEHS [SEQ ID NO: 259], the Relative activity was 129.
As for IEGWWWQFYVHAKGDHS [SEQ ID NO: 270], the figure is 109.
The result for IEGWSWQFYFHAKGDHS [SEQ ID NO: 277] reads 104; that for IEGWPRQLYAHAKEDHS [SEQ ID NO: 280], 95.6; that for IEGWWWQFYFHAKEDHS [SEQ ID NO: 255], 136.
On to IEGWWWQFYFHPKEDHS [SEQ ID NO: 262], for which the Relative activity is 124.
As for IEGWIWRQWLAARA [SEQ ID NO: 286], the figure is 91.4; as for IEGWIWRPWLAARA [SEQ ID NO: 287], 83.3; as for IEGWVWCQWLAARA [SEQ ID NO: 290], 79.1.
As for IEGPTFKQWQACLHSHS [SEQ ID NO: 266], the Relative activity came to 114.
As for IEGPTLRQRLAARA [SEQ ID NO: 299], the figure is 57.3.
The molecule IEGPTLRQWLAARA (Positive control of the phage-ELISA) [IEGPTLRQWLAARA (positive control)] showed a Relative activity of 150.
As for IEGPTFKQWQKSRTKHS [SEQ ID NO: 263], the figure is 124.

B1: SEQ ID NO: 250 (peptide)
peptide: IEGRWPPPQFPVTQQHSLERVGRPPPSVELPRPTFVCAQIEGPTFKQWQRCLREHS
With B1, the Relative activity turned out to be 149.

B2: SEQ ID NO: 284 (peptide)
peptide: IEGHGSQKPTAARALESTSSLTTRTRTTSICAQQDMVGPTIRQWLAARACI
B2 gave a Relative activity of 92.1.
As for IEGPTFKQWQKWRKTHS [SEQ ID NO: 274], the figure is 105; as for IEGPSFTPWFHERRSHS [SEQ ID NO: 268], 110.
IEGPTFKQWQRWRLLHS [SEQ ID NO: 251]: the Relative activity stood at 149.
As for IEGQSWLRRLHWKEEHS [SEQ ID NO: 272], the figure is 108.
For IEGPTFKQWQAWRKKHS [SEQ ID NO: 252], the Relative activity came to 146.

B3: SEQ ID NO: 246 (peptide)
peptide: IEGQSWEFENDRVPAHSLERVLLLRRVPTEPSGPSICAQIEGPTFKQWQECINGHS
In the case of B3, the Relative activity worked out at 173.
For IEGPTFKQWQYWRAKHS [SEQ ID NO: 275], the Relative activity came to 105.
PSICAQIEGPTFKQWQTCMRAHS [SEQ ID NO: 256] displayed a Relative activity of 133.
The result for IEGPTFKQWQKCRNMHS [SEQ ID NO: 247] reads 164; that for IEGPTFKQWQKLRRVHS [SEQ ID NO: 248], 155; that for IEGPTFKQWQKLRRSHS [SEQ ID NO: 261], 125.
IEGWWWQFYAHPQGDHS [SEQ ID NO: 281] registered a Relative activity of 95.
As for IEGWTWQFYAHPQGDHS [SEQ ID NO: 317], the figure is 24.2.
The result for IEGWSWQFYAHPKGDHS [SEQ ID NO: 300] reads 52.6; that for IEGWPWQFYAHPQGDHS [SEQ ID NO: 289], 80.3.
In turn, IEGPTFKQWQAARMHHS [SEQ ID NO: 265] yielded a Relative activity of 122.
Molecule IEGWTWQFYVHPKGDHS [SEQ ID NO: 264] came in with a Relative activity of 122.
As for IEGPTFEQWQHWRRGHS [SEQ ID NO: 285], the figure is 91.5; as for IEGPTFKQWQWLRRHHS [SEQ ID NO: 269], 109.
The result for IEGPTFKQWQMLRRHHS [SEQ ID NO: 328] reads 12.5.

B4: SEQ ID NO: 249 (peptide)
peptide: IEGEPVSDGKRRPRVHSLERVDAVHAKVGPSICAQIEGPTFKQWQKCKRAHS
B4 registered a Relative activity of 150.

B5: SEQ ID NO: 257 (peptide)
peptide: IEGYVGGPYEQTNSLERVPPTLAWKYGPRTPSICAQIEGPTFKQWQQCLSDHS
B5 returned a Relative activity of 131.
The result for IEGWWWQLYFHAKDDHS [SEQ ID NO: 260] reads 126.

B6: SEQ ID NO: 254 (peptide)
peptide: IEGRWPPPQFPVTEHHSLERVGRRPPNAQMPQSIFICGQNEGPTFQYCQRCLREHS
The molecule B6 showed a Relative activity of 137.
As for IEGPTFKQWQVRQKTHS [SEQ ID NO: 276], the figure is 105.
In turn, IEGPTFKQWQVWRNRHS [SEQ ID NO: 271] gave a Relative activity of 108.
The result for IEGRTWQLYFHAKEEHS [SEQ ID NO: 278] reads 102.
Take IEGPTFKQWQGRSKRHS [SEQ ID NO: 258]: the Relative activity was 131.
